This passage reports molar excess of ligand results from patent US20150307546A1.

The assay addresses horseradish peroxidase (HRP) (horseradish) (UniProt P00433). Put plainly: affinity precipitation at varied ligand to HRP ratio; peroxidase activity assay.

Values joined by “and” are separate entries in the source; they are usually repeats but may differ in a detail not shown here. Equal entries are not always repeated.

Sequence of UniProt P00433 (P00433 31-338): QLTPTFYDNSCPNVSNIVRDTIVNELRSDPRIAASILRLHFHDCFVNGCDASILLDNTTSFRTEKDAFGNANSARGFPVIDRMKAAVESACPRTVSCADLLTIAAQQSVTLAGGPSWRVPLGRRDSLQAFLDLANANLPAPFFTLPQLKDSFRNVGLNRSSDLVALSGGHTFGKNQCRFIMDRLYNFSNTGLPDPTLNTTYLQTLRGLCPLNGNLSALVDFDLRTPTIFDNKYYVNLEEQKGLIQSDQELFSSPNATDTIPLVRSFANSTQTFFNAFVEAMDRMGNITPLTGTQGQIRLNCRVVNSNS

Regarding “RSL-ELP40 (fucose lectin from Ralstonia solanacearum fused by a 10 amino acid glycine rich linker to (designed binder)”, the molar excess of ligand at which full recovery was approached (mol ligand per mol HRP) is 15 and 20.
